Changes are numbered by the printed parent chain. Names and notes keep the numbering of the source.
B1: T049M: single-substitution thermolysin variant (SEQ ID NO:3 numbering) (protein, listed as Geobacillus caldoproteolyticus)
chain: ITGTSTVGVGRGVLGDQKNINTTYSTYYYLQDNTRGNGIFTYDAKYRTMLPGSLWADADNQFFASYDAPAVDAHYYAGVTYDYYKNVHNRLSYDGNNAAIRSSVHYSQGYNNAFWNGSQMVYGDGDGQTFIPLSGGIDVVAHELTHAVTDYTAGLIYQNESGAINEAISDIFGTLVEFYANKNPDWEIGEDVYTPGISGDSLRSMSDPAKYGDPDHYSKRYTGTQDNGGVHINSGIINKAAYLISQGGTHYGVSVVGIGRDKLGKIFYRALTQYLTPTSNFSQLRAAAVQSATDLYGSTSQEVASVKQAFDAVGVK
B2: I156H: single-substitution thermolysin variant (SEQ ID NO:3 numbering) (protein, listed as Geobacillus caldoproteolyticus)
chain: B1 chain with M49T, I156H
B3: I156K: single-substitution thermolysin variant (SEQ ID NO:3 numbering) (protein, listed as Geobacillus caldoproteolyticus)
chain: B1 chain with M49T, I156K
B4: A056R: single-substitution thermolysin variant (SEQ ID NO:3 numbering) (protein, listed as Geobacillus caldoproteolyticus)
chain: B1 chain with M49T, A56R
B5: A056Y: single-substitution thermolysin variant (SEQ ID NO:3 numbering) (protein, listed as Geobacillus caldoproteolyticus)
chain: B1 chain with M49T, A56Y
B6: A058S: single-substitution thermolysin variant (SEQ ID NO:3 numbering) (protein, listed as Geobacillus caldoproteolyticus)
chain: B1 chain with M49T, A58S
B7: G196D: single-substitution thermolysin variant (SEQ ID NO:3 numbering) (protein, listed as Geobacillus caldoproteolyticus)
chain: B1 chain with M49T, G196D
B8: S065I: single-substitution thermolysin variant (SEQ ID NO:3 numbering) (protein, listed as Geobacillus caldoproteolyticus)
chain: B1 chain with M49T, S65I
B9: G196H: single-substitution thermolysin variant (SEQ ID NO:3 numbering) (protein, listed as Geobacillus caldoproteolyticus)
chain: B1 chain with M49T, G196H
B10: S065T: single-substitution thermolysin variant (SEQ ID NO:3 numbering) (protein, listed as Geobacillus caldoproteolyticus)
chain: B1 chain with M49T, S65T
B11: Q273A: single-substitution thermolysin variant (SEQ ID NO:3 numbering) (protein, listed as Geobacillus caldoproteolyticus)
chain: B1 chain with M49T, Q273A
B12: Q273N: single-substitution thermolysin variant (SEQ ID NO:3 numbering) (protein, listed as Geobacillus caldoproteolyticus)
chain: B1 chain with M49T, Q273N
B13: Q273T: single-substitution thermolysin variant (SEQ ID NO:3 numbering) (protein, listed as Geobacillus caldoproteolyticus)
chain: B1 chain with M49T, Q273T
B14: Q273W: single-substitution thermolysin variant (SEQ ID NO:3 numbering) (protein, listed as Geobacillus caldoproteolyticus)
chain: B1 chain with M49T, Q273W
B15: T278C: single-substitution thermolysin variant (SEQ ID NO:3 numbering) (protein, listed as Geobacillus caldoproteolyticus)
chain: B1 chain with M49T, T278C
B16: T278H: single-substitution thermolysin variant (SEQ ID NO:3 numbering) (protein, listed as Geobacillus caldoproteolyticus)
chain: B1 chain with M49T, T278H
B17: T278N: single-substitution thermolysin variant (SEQ ID NO:3 numbering) (protein, listed as Geobacillus caldoproteolyticus)
chain: B1 chain with M49T, T278N
B18: T278S: single-substitution thermolysin variant (SEQ ID NO:3 numbering) (protein, listed as Geobacillus caldoproteolyticus)
chain: B1 chain with M49T, T278S
B19: T278Y: single-substitution thermolysin variant (SEQ ID NO:3 numbering) (protein, listed as Geobacillus caldoproteolyticus)
chain: B1 chain with M49T, T278Y
B20: N280E: single-substitution thermolysin variant (SEQ ID NO:3 numbering) (protein, listed as Geobacillus caldoproteolyticus)
chain: B1 chain with M49T, N280E
B21: N280I: single-substitution thermolysin variant (SEQ ID NO:3 numbering) (protein, listed as Geobacillus caldoproteolyticus)
chain: B1 chain with M49T, N280I
B22: N280L: single-substitution thermolysin variant (SEQ ID NO:3 numbering) (protein, listed as Geobacillus caldoproteolyticus)
chain: B1 chain with M49T, N280L
B23: N280M: single-substitution thermolysin variant (SEQ ID NO:3 numbering) (protein, listed as Geobacillus caldoproteolyticus)
chain: B1 chain with M49T, N280M
B24: N280S: single-substitution thermolysin variant (SEQ ID NO:3 numbering) (protein, listed as Geobacillus caldoproteolyticus)
chain: B1 chain with M49T, N280S

Assay: Stability assay in 25% TIDE 2X detergent with DTPA (residual Abz-AGLA-Nba protease activity)
Assay type: physicochemical
Settings: 60 min at 32°C; variant residual AGLA activity divided by wild-type residual activity
Protocol: The stability of thermolysin and variants thereof was measured after incubation under defined conditions in the presence of 25% TIDE® 2× detergent. The initial and residual activity was determined.
MTPs were obtained from Costar (type 9017) and from Greiner (black plate, type 655076). Test Method Unstressed Conditions:
First, 20 μl thermolysin containing culture supernatant was diluted with 180 μl MES assay buffer. Then, 20 μl diluted supernatant was diluted further with 180 μl MES assay buffer. Subsequently 10 μl of this dilution was transferred into 190 μl AGLA-substrate solution in a pre-warmed plate (Greiner 655076) at 25° C. Any air bubbles present were blown away and the plate was measured according to the AGLA protease assay protocol described below.
First, 20 μl of culture supernatant was diluted with 180 μl 27.5% TIDE®+detergent solution and placed in the iEMS shaker. The plate covered with a plate seal was incubated for a total of 60 minutes at 32° C. at 900 rpm. In addition, 20 μl of culture supernatant was diluted with 180 μl 27.5% TIDE®−solution and placed in the iEMS shaker. This plate covered with a plate seal was incubated for a total of 180 minutes at 50° C. at 900 rpm.
Subsequently after the respective incubations, 20 μl of either of these solutions were diluted with 180 μl MES assay buffer and 10 μl of this dilution were diluted with 190 μl AGLA-substrate solution in a pre-warmed plate (Greiner 655076) at 25° C.
Fluorescence measurements were taken at excitation of 350 nm and emission of 420 nm. The spectrofluorometer software calculated the reaction rates (=slope) of the increase in fluorescence for each well to a linearly regressed line of (milli-) RFU/min. The ratio of the residual and initial AGLA activity was used to express the 25% TIDE® 2× stability as follows: Percentage of residual activity=[slope of stressed]*100/[slope of unstressed]
For each sample (thermolysin and variants thereof) the performance index was calculated by dividing the residual activity of the variant by the residual activity of thermolysin. The performance index compared the stability of the variant and the standard thermolysin enzyme (e.g., wild type or parental enzyme), determined under the same conditions.
In these experiments, the liberation of Abz-AG by protease cleavage of Abz-AGLA-Nba was monitored by fluorescence spectrometry (Ex. 350/Em. 420). The rate of appearance of Abz-AG was a measure of proteolytic activity.
The Abz-AGLA-Nba assay solution was prepared by adding 1 ml of the Abz-AGLA-Nba stock to 19 ml MES substrate buffer and mixed well for at least 2 minutes. Subsequently the thermolysin or variants thereof containing culture supernatants were diluted with MES assay buffer to a concentration of 1-6 μg protein per ml.
The assay was performed by adding 10 μl of diluted protease solution to each well, followed by the addition of 190 μl Abz-AGLA-Nba assay solution that was pre-equilibrated for at least 15 minutes at 25° C. The solutions were vigorously mixed, and the liberation of Abz-AG by protease cleavage of Abz-AGLA-Nba was monitored by fluorescence spectrometry at 25° C. in kinetic mode with excitation set at 350 nm and emission set at 420 nm. The rate of appearance of Abz-AG was a measure of proteolytic activity in the samples. The protease activity was expressed as RFU (relative fluorescence units·min^−1).
As described in Example 1, the stability of thermolysin variants was measured by determining the AGLA activity before and after incubation in the presence of TIDE® 2× heavy duty liquid (HDL) detergent at an elevated temperature. The tables contain the relative stability values compared to wild-type thermolysin, which is the quotient of the variant residual activity divided by the wild-type residual activity. A value greater than one indicates higher stability in the presence of detergent. […]

First: B1
Second: B2
The “PI (relative stability), 25% TIDE 2X with DTPA” value of the first is lower: 1.02 for the first, 1.21 for the second.

Going from B3 to B4, the “PI (relative stability), 25% TIDE 2X with DTPA” value rises from 1.07 to 1.10.

Compared with B5, B6 is lower in “PI (relative stability), 25% TIDE 2X with DTPA” value: 1.05 for the first, 1.02 for the second.

Compared with B7, B8 is higher in “PI (relative stability), 25% TIDE 2X with DTPA” value: 1.02 for the first, 1.05 for the second.

First: B9
Second: B10
The “PI (relative stability), 25% TIDE 2X with DTPA” value of the first is higher: 1.19 for the first, 1.04 for the second.

Compared with B11, B12 is higher in “PI (relative stability), 25% TIDE 2X with DTPA” value: 1.03 for the first, 1.25 for the second.

Going from B13 to B14, the “PI (relative stability), 25% TIDE 2X with DTPA” value falls from 1.08 to 1.05.

Going from B15 to B16, the “PI (relative stability), 25% TIDE 2X with DTPA” value rises from 1.05 to 1.07.

Going from B17 to B18, the “PI (relative stability), 25% TIDE 2X with DTPA” value rises from 1.07 to 1.08.

Going from B19 to B20, the “PI (relative stability), 25% TIDE 2X with DTPA” value rises from 1.05 to 1.13.

Compared with B21, B22 is higher in “PI (relative stability), 25% TIDE 2X with DTPA” value: 1.16 for the first, 1.21 for the second.

Going from B23 to B24, the “PI (relative stability), 25% TIDE 2X with DTPA” value rises from 1.16 to 1.19.
